Where two headings read alike, the source gives them in different places.
B1: 9D1 chimeric llama-human mAb (antibody, human IgG1, V domains shown)
VH: EVQLVESGGGLVQPGGSLRLSCAASGFTFSVYYMNWVRQAPGKGLEWVSDINNEGGTTYYADSVKGRFTISRDNAKNTLTLQMNSLKPEDTALYYCVRDAGYSNHVPIFDSWGQGTQVIVAS
VL: QAVVTQEPSLSVSPGGTVTLTCGLSSGSVTSSHYPGWYQQTPGQAPRLLIFNTNSRHSGVPSRFSGSISGNKAALTITGAQPEDEADYYCALLNIDDGSTMFGGGTHLTVLG
notes: also called mAb 9D1
B2: 9G2 chimeric llama-human mAb (antibody, human IgG1, V domains shown)
VH: QVQLVESGGGLMQPGGSLRLSCAASGFTFSSSAMSWVRQAPGKGLEWVSSIYSDSSYTYYADSVKSRFTISTDNAKNTLYLQMNSLKPDDTAVYYCAGSSDYEGSFASWGQGTQVTVSS
VL: QSVVTQPPSLSASPGSSVRLTCTLSSGNSVGNYDISWYQQKAGSPPRYLLYYYSDSVKHQGSGVPSRFSGSSDASANAGLLLISGLQPEDEADYYCSAYKSGSHVFGGGTKLTVLG
B3: 57B6 chimeric llama-human mAb (antibody, human IgG1, V domains shown)
VH: QLQLVESGGGLVQPGGSLRLSCAASGFSFSHYAMSWVRQAPGKGLEWVSGDNTYDGGTRYQDSVKGRFTISRDNGKNTLYLQMNSLKPEDTAVYYCAKDTGRGIMGEYGMDYWGKGTLVTVSS
VL: QTVVTQEPSLSVSPGGTVTLTCGLKSGSVTSSNYPAWYQQTPGQAPRLLIYNTNSRHSGVPSRFSGSISGNKAALTITGAQPEDEADYYCALYMGSGSANAMFGGGTHLTVLG
B4: 59D10 chimeric llama-human mAb (antibody, human IgG1, V domains shown)
VH: EVQLVESGGGLVQPGGSLRLSCAASELSFSISEMTWVRQAPGKGLEWVSGISGVTGGSSTSYADSVKGRFTISRDNDKNTLYLQMNSLIPEDTAVYYCATTSGTYYFIPEYEYWGQGTQVTVSS
VL: QSVLTQPPSVSGSPGKTVTISCAGTSSDVGYGYYVSWYQQFPGMAPKLLIYDVNKRASGIADRFSGSKAGNTASLTISGLQSEDEADYYCASYRSSANAVFGGGTHLTVLG
B5: 9E1 chimeric llama-human mAb (antibody, human IgG1, V domains shown)
VH: EVQLQESGGGVVQPGGSLRLSCAASGFTFDDYAMSWVRQAPGKGLEWVSSIYMYDSSTYYADSVKGRFTISTDNAKNTVYLQMNSLKSEDTAVYYCAKDINRSYGSSWSHFGPIFSSWGQGTQVTVSS
VL: QAVVTQEPSLSVSPGGTVTLTCGLTSGSVTSSNYPDWYQQTPGQAPRLLIYNTNSRHSGVPSRFSGSISGNKAALTITGAQPEDEADYYCNLYMGSGGSKVFGGGTKLTVLG
B6: 27B3 Fab (Fab, V domains shown)
VH: B1 VH
VL: QAVVTQEPSLTVSPGGTVTLTCGLKSGSVTSTNFPTWYQQTPGQAPRLLIYNTNTRHSGVPSRFSGSISENKAALTITGAQPEDEAEYFCALFISNPSVEFGGGTQLTVLS
notes: Llama-derived Fab; also called Fab 27B3

Tests used:
[1] = target: T1, human CD70 expressed on the surface of cells (human, UniProt P32970 1-193); experiment: cell-based or functional assay
T1 sequence (looked up): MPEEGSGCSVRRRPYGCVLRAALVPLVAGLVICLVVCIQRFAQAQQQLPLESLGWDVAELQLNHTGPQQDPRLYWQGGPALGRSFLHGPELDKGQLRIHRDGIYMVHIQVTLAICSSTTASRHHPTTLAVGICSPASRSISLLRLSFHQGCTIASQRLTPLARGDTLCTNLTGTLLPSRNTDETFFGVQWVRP

[2] = target: T1, human CD70 expressed on the surface of …; experiment: flow cytometry on 786-O cells, anti-human Fc-FITC
Procedure: Fluorescence of 10,000 cells/condition was measured using a flow cytometer and the median fluorescence was plotted.

[3] = target: T2, recombinant human CD70 (Flag-TNC-CD70) (human, UniProt P32970 39-193); experiment: inhibition ELISA; Flag-TNC-CD70 captured by anti-Flag mAb; competitor CD27-Fc
T2 construct: extracellular domain; Captured by anti-Flag mAb in ELISA; as 'recombinant human CD70' immobilised on Biacore CM5 chips; TNC is for trimerisation; also called recombinant CD70; human recombinant CD70; not shown: Flag tag and TNC trimerisation domain
T2 sequence (looked up): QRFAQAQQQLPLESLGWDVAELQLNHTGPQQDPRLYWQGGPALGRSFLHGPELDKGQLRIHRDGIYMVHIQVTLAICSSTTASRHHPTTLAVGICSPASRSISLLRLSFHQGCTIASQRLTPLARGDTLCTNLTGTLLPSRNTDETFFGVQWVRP
Procedure: (§1) From selected phage transfected into TG1, individual colonies were picked randomly for growth in 96 well plates. After IPTG induction according to standard protocols periplasmic fractions (penis) containing Fabs were prepared. […] In this assay, Flag-TNC-CD70 is captured by an anti-Flag mAb and binding of CD27-Fc is detected via a biotinylated anti-CD27 mAb and strep-HRP in the absence or presence of CD70 Fabs (FIGS. 2 and 3) or CD70 mAbs (FIG. 4). In FIG. 2B it can be seen that 27B3, which has an identical VH as 9D1, but contains a somewhat different light chain, seems to block binding of CD27 to CD70 more efficiently, which was in line with the better off rate of this Fab as measured on Biacore (data not shown). Table 3 indicates the blocking potency (expressed as IC50) for the various llama-human chimeric mAbs tested in the CD70 inhibition ELISA. […] FIG. 3 is a composite of an experiment testing llama CD70 Fabs for blocking activity (in the inhibition ELISA, see white bars) and for CD70 binding (binding ELISA, black bars). For the binding ELISA, Flag-TNC-CD70 is captured by an anti-Flag mAb and binding of the Fabs is detected using an anti-myc-HRP mAb, which recognizes the MYC tag fused to the C-terminus of the Fd fragment. For comparison purposes, known monoclonal antibodies to CD70 (SGN70 described in US 2010/0129362 A1, clone 1F6; and MDX69A7 described in WO2008/074004 FIGS. 5A and 5B) were tested in parallel. […] Of interest is clone 59D10, which as Fab has no blocking activity, but when converted into a chimeric IgG was antagonistic (see Table 3). Amino acid sequences of the VH and VL domains of binding and blocking llama-derived Fab clones are shown elsewhere herein (Tables 6-9).

[4] = target: T2, recombinant human CD70 (Flag-TNC-CD70); experiment: as above; remark: listed apart in the source
Procedure: as §1

[5] = target: T1, human CD70 expressed on the surface of …; experiment: cell-based or functional assay; remark: listed apart in the source
[6] = target: T1, human CD70 expressed on the surface of …; experiment: flow cytometry on MHH-PREB-1 cells; anti-human IgG-FITC
Procedure: In a further experiment, NHL-derived MHH-PREB-1 cells (1W cells) were incubated with a concentration gradient of chimeric llama-human CD70 inhibiting mAbs (20 μg/ml-0.25 ng/ml) and binding of the mAbs to the cells was detected using anti-human IgG-FITC antibody.

[7] = target: T3, rhesus recombinant CD70 (FLAG-TNC-rhesus CD70) (rhesus); experiment: inhibition ELISA; FLAG-TNC-rhesus CD70; competitor CD27-Fc
T3 construct: also called rhesus Flag-TNC-CD70
From the text: In this assay, Flag-TNC-CD70 is captured by an anti-Flag mAb and binding of CD27-Fc is detected via a biotinylated anti-CD27 mAb and strep-HRP in the absence or presence of CD70 Fabs (FIGS. 2 and 3) or CD70 mAbs (FIG. 4). In FIG. 2B it can be seen that 27B3, which has an identical VH as 9D1, but contains a somewhat different light chain, seems to block binding of CD27 to CD70 more efficiently, which was in line with the better off rate of this Fab as measured on Biacore (data not shown). Table 3 indicates the blocking potency (expressed as IC50) for the various llama-human chimeric mAbs tested in the CD70 inhibition ELISA. […] FIG. 3 is a composite of an experiment testing llama CD70 Fabs for blocking activity (in the inhibition ELISA, see white bars) and for CD70 binding (binding ELISA, black bars). For the binding ELISA, Flag-TNC-CD70 is captured by an anti-Flag mAb and binding of the Fabs is detected using an anti-myc-HRP mAb, which recognizes the MYC tag fused to the C-terminus of the Fd fragment. For comparison purposes, known monoclonal antibodies to CD70 (SGN70 described in US 2010/0129362 A1, clone 1F6; and MDX69A7 described in WO2008/074004 FIGS. 5A and 5B) were tested in parallel. […] Of interest is clone 59D10, which as Fab has no blocking activity, but when converted into a chimeric IgG was antagonistic (see Table 3). […]

[8] = target: T4, heat denatured recombinant CD70 (human, UniProt P32970 52-193, limits assumed); experiment: ELISA on coated heat denatured recombinant CD70, anti-human IgG-HRP
T4 construct: Same recombinant CD70 as m1, denatured by heating for 5 minutes at 95 C and cooling on ice, coated directly on the plate; also called denatured CD70; not shown: Flag tag (anti-Flag mAb was the coating control) and further fusion parts
T4 sequence (looked up): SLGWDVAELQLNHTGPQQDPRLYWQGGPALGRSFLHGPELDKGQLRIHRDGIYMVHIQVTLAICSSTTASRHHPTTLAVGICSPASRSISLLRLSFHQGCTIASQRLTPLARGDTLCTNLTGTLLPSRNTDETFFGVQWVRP
Procedure: The binding of CD70 mAbs to denatured recombinant CD70 was assessed by ELISA. Recombinant CD70 was denatured by heating for 5 minutes at 95° C., followed by immediate cooling on ice for 5 minutes. A microtiter plate was coated with 5 μg/ml CD70 with or without denaturation. The plate was blocked and the CD70 mAbs for testing were applied at 10 μg/ml. After washing, binding of the mAbs was detected using anti-human IgG-HRP. As a positive control for the coating, instead of using the CD70 mAbs, an anti-Flag mouse-derived mAb was applied and detection was with anti-mouse-HRP. TMB was used as a substrate and OD at 620 nm was measured. […] Amongst the other mAbs, some are also binding to denatured CD70 (fe 5F4, 9G2, 57B6).

[9] = target: T2, recombinant human CD70 (Flag-TNC-CD70); experiment: Biacore; recombinant human CD70 on CM5 chip; Fab injected
Procedure: Off-rates of the purified llama-derived anti-CD70 blocking Fabs were determined using the Biacore. Recombinant human CD70 was immobilized on a CM5 Biacore chip. The immobilization was performed in accordance with a method provided by Biacore and by using the NHS/EDC kit (Biacore AB): after activation of the chip, a solution of 50 μg/ml of recombinant CD70 in 10 mM acetate buffer with pH of 5 was prepared and 1 μl of this solution (50ng) was injected resulting in a surface density of approximately 1000 RU.
Fabs for the CD70 mAbs ARGX-110, MDX2H5 and SGN70 were prepared by […] digestion (SGN70 and MDX69A7 are described elsewhere herein, MDX2H5, also referred to as MDX1411, is described in WO2008/074004 FIGS. 1A and 1B). Fabs, at a concentration of approximately 100-400 μg/ml, were diluted 6-fold in hepes-buffered saline (0.1M Hepes, 1.5M NaCl, 30 mM EDTA, 0.5% v/v surfactant P20). They were injected (30 μl) and passed through the flow cells at a flow rate of 30 μl/min. After binding of the Fab to CD70, the off-rate was monitored for a period of 10 minutes. After the dissociation, the flow cell surfaces were regenerated by injecting 5 μl of 10 mM NaOH. Sometimes multiple injections of NaOH were needed to regenerate the surfaces depending on the affinity of the Fabs. Off-rate analysis was done by applying the BIAevaluation software. First, the sensogram of the blank runs were subtracted from those obtained with the coated flow cell. […] Moreover, the off-rate of CD27 for CD70 was determined as well.

[10] = target: T2, recombinant human CD70 (Flag-TNC-CD70); experiment: Biacore; CD70 coated CM5 chip; Fab in periplasmic fraction
Procedure: Phage eluted from rounds 3, 4 and 5 of selection were transfected into TG1 and plated clonally; individual clones were picked randomly for further analysis. Periplasmic fractions containing Fabs were prepared from IPTG induced small scale cultures the off rate of each Fab was determined using a CD70 coated CM5 chip in a Biacore binding assay. Clones with Fab having off rates similar to that of 27B3 were sequenced.

Binder	IC50 (ng/ml), IL-8 secretion in Raji / HT1080-CD27 co-culture assay [1]	EC50 (read off the curve) [2]	IC50 [3]	IC50 [4]	IC50, IL-8 secretion in Raji / HT1080-CD27 co-culture assay [5]	EC50 [6]	IC50 [7]	binding result [8]	koff [9]	koff [10]
B1	29 ng/mL	~0.03 µg/mL	0.73 nM	0.109 µg/mL						
B2	3 ng/mL	~0.1 µg/mL		0.04 µg/mL	0.02 nM					
B3	5 ng/mL			0.154 µg/mL		0.083 µg/mL	0.135 µg/mL			
B4	10 ng/mL			0.107 µg/mL		0.074 µg/mL				
B5	517 ng/mL			1.4 µg/mL				no binding (tested: 10 µg/ml (text))		
B6			~0.4 nM						8e-05 s⁻¹	0.00014 s⁻¹
